Target: human transferrin receptor (TFR) on Raji cells (human) (UniProt P02786)
Test: FACS on Raji cells, secondary antibody without IgG1 clone [CONTINUED]

Sequence of human transferrin receptor (TFR) on Raji cells (human) (P02786 whole entry): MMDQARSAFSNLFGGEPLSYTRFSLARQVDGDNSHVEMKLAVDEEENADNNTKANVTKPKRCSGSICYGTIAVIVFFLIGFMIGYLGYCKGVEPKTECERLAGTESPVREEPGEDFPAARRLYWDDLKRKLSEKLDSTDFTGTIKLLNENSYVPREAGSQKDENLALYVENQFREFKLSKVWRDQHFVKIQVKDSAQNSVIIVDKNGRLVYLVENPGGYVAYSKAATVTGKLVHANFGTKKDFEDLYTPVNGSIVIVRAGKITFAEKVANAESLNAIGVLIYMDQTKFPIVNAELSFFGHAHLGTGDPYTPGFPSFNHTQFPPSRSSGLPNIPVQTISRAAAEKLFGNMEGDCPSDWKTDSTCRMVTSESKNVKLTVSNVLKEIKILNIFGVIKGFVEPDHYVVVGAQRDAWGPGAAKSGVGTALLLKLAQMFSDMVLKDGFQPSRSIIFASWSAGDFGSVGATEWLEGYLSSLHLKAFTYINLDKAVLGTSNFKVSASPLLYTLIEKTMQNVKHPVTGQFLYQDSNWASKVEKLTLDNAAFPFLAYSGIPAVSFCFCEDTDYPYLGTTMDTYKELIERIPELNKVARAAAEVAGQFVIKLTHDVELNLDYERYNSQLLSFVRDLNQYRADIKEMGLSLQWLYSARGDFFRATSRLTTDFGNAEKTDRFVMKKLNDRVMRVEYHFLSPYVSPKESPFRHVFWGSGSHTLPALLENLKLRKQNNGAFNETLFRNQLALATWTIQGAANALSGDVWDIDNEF

Question: With ANTI-FAB ALEXA FLUOR 647 (antibody) as the substance, how does the TFR gate, percent of cells read?
Answer: Its TFR gate, percent of cells is 19.1.

Reference: patent US20210147566A1
